Experimental data: US7276337B2, “Compositions and methods for visual ribonuclease detection assays” (Integrated DNA Technologies, Inc., priority 2000, dated 2007)

test system: Substrate oligonucleotide SEQ ID NO:30; assay: RNase testing of commercially obtained reagents, visual detection; assay type: biochemical; set-up: key: +++ = maximum intensity; ++ = moderate intensity; + = faint but above background; − = negative (identical to background); details: reagent diluted 1:10 with Assay Buffer, 50 pmoles Substrate SEQ ID NO:30, 60 minutes at 37° C., UV
Protocol: Enzymes were obtained from New England Biolabs (NEB) or Ambion as indicated. Test sample (10 ul) was mixed with 1× buffer (90 ul) for a final volume of 100 ul with 50 pmoles of Substrate SEQ ID NO:30 in 0.5 ml RNase-free microtubes. Assay Mixes were incubated 60 minutes at 37° C. and visually examined under UV excitation for fluorescence emission. After scoring for results, 1 ul (1 ug) of RNase A was added to each tube. The Assay was incubated an additional 5 minutes at 37° C. and re-scored. The addition of RNase A represents a control for the absence of an Assay inhibitor and validates negative results. The “plus RNase A” control was omitted whenever the primary assay was already positive.
Table 9: RNase testing of commercially available reagents. A series of commercially available reagents were diluted 1:10 with Assay Buffer to a final volume of 100 ul. An RNase detection assay was performed using the method of the invention with Substrate oligonucleotide SEQ ID NO:30. Reactions were examined for fluorescence emission by visual inspection using an ultraviolet (UV) light source for excitation. Results were scored as +++, ++, +, or − based on relative signal intensity. As a control, RNase A (1 ug) was added to negative reactions and the Assay was re-scored. ND=not done.

Row | Molecule | Assay Results (RNase activity in reagent, relative signal intensity)
1 | Proteinase K: commercial enzyme reagent from Ambion, sold as RNase-free (protein, UniProt P06873 106-384, looked up) Proteinase K: AAQTNAPWGLARISSTSPGTSTYYYDESAGQGSCVYVIDTGIEASHPEFEGRAQMVKTYYYSSRDGNGHGTHCAGTVGSRTYGVAKKTQLFGVKVLDDNGSGQYSTIIAGMDFVASDKNNRNCPKGVVASLSLGGGYSSSVNSAAARLQSSGVMVAVAAGNNNADARNYSPASEPSVCTVGASDRYDRRSSFSNYGSVLDIFGPGTSILSTWIGGSTRSISGTSMATPHVAGLAAYLMTLGKTTAASACRYIADTANKGDLSNIPFGTVNLLAYNNYQA | −
2 | Bam HI: commercial enzyme from New England Biolabs, sold as RNase-free (protein, UniProt P23940 1-213, looked up) Type II restriction enzyme …: MEVEKEFITDEAKELLSKDKLIQQAYNEVKTSICSPIWPATSKTFTINNTEKNCNGVVPIKELCYTLLEDTYNWYREKPLDILKLEKKKGGPIDVYKEFIENSELKRVGMEFETGNISSAHRSMNKLLLGLKHGEIDLAIILMPIKQLAYYLTDRVTNFEELEPYFELTEGQPFIFIGFNAEAYNSNVPLIPKGSDGMSKRSIKKWKDKVENK | −
3 | RNase A: commercial enzyme reagent from Ambion, tested for RNase activity (protein, UniProt P61823 27-150, looked up) Ribonuclease pancreatic: KETAAAKFERQHMDSSTSAASSSNYCNQMMKSRNLTKDRCKPVNTFVHESLADVQAVCSQKNVACKNGQTNCYQSYSTMSITDCRETGSSKYPNCAYKTTQANKHIIVACEGNPYVPVHFDASV | +++
4 | RNase T1: commercial enzyme reagent from Ambion, tested for RNase activity (protein, UniProt P00651 27-130, looked up) Guanyl-specific ribonuclease …: ACDYTCGSNCYSSSDVSTAQAAGYQLHEDGETVGSNSYPHKYNNYEGFDFSVSSPYYEWPILSSGDVYSGGSPGADRVVFNENNQLAGVITHTGASGNNFVECT | +++
5 | RNase 1: commercial enzyme reagent from Ambion, tested for RNase activity (protein, UniProt P21338 24-268, looked up) Ribonuclease I: LALQAKQYGDFDRYVLALSWQTGFCQSQHDRNRNERDECRLQTETTNKADFLTVHGLWPGLPKSVAARGVDERRWMRFGCATRPIPNLPEARASRMCSSPETGLSLETAAKLSEVMPGAGGRSCLERYEYAKHGACFGFDPDAYFGTMVRLNQEIKESEAGKFLADNYGKTVSRRDFDAAFAKSWGKENVKAVKLTCQGNPAYLTEIQISIKADAINAPLSANSFLPQPHPGNCGKTFVIDKAGY | +++
